Patent publication US20230104540A1 (NEURACLE SCIENCE, published 2023)

Assays:
[1] = biological target: T1, FAM19A1 protein (ELISA of Example 3) (Homo sapiens (Human), UniProt Q7Z5A9 20-133); assay: ELISA, IgG titrated from 0 to 100 nM on FAM19A1 protein (Example 3); Kd row of the table under the graph, R square 0.9106, the concentration axis reads Cons (nM); fitted curve levels off low, at A450 about 0.75
[2] = biological target: T2, CD58-Fc (UniProt P19256 29-215, limits assumed); assay: mono scFv-phage ELISA on coated antigen, single point (Example 2)
T2 construct: Control antigen
T2 sequence (looked up): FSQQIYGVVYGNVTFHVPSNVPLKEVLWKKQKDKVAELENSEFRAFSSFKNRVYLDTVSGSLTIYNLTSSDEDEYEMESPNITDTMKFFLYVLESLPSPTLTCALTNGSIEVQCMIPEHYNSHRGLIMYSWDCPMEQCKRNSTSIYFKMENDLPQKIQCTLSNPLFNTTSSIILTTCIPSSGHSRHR

[3] = biological target: T3, AITR-Fc (UniProt Q9Y5U5 26-161, limits assumed); assay: as above
T3 construct: also called AIRTR
T3 sequence (looked up): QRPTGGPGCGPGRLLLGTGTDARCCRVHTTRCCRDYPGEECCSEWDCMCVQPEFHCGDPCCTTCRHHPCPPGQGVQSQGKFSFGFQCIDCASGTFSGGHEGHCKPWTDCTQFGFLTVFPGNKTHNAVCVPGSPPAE

[4] = biological target: T4, hRAGE-Fc (human (by the label hRAGE), UniProt Q15109 23-344, limits assumed); assay: as above
T4 construct: Control antigen

[5] = biological target: T1, FAM19A1 protein (ELISA of Example 3); assay: ELISA, IgG titrated from 0 to 100 nM on FAM19A1 protein (Example 3); Kd row of the table under the graph, R square 0.9527, the concentration axis reads Cons (nM); fitted curve levels off at A450 about 2.8, last point at 100 nM about 3.1
[6] = biological target: Fam19A1-M1; assay: ELISA on coated FAM19A1 protein (500 ng), one antibody amount, anti-hKappa-HRP (Example 4)
[7] = biological target: Fam19A1-M4; assay: as above
[8] = biological target: Fam19A1-M5; assay: as above
[9] = biological target: Fam19A1-M7; assay: as above
[10] = biological target: Fam19A1-M2; assay: as above
[11] = biological target: Fam19A1-M3; assay: as above
[12] = biological target: Wild-type FAM19A1 (Table 10) (Mus musculus (Mouse), UniProt Q7TPG8 20-133); assay: as above
[13] = biological target: FAM19A1 mutant M6 (Mus musculus (Mouse), UniProt Q7TPG8 20-133); assay: ELISA on plate-coated mutant, anti-hKappa-HRP detection
[14] = biological target: T1, FAM19A1 protein (ELISA of Example 3); assay: ELISA, IgG titrated from 0 to 100 nM on FAM19A1 protein (Example 3); Kd row of the table under the graph, R square 0.9168, the concentration axis reads Cons (nM); the curve is faint and not told apart from that of 1A11

T4 sequence (Q15109 23-344 limits assumed): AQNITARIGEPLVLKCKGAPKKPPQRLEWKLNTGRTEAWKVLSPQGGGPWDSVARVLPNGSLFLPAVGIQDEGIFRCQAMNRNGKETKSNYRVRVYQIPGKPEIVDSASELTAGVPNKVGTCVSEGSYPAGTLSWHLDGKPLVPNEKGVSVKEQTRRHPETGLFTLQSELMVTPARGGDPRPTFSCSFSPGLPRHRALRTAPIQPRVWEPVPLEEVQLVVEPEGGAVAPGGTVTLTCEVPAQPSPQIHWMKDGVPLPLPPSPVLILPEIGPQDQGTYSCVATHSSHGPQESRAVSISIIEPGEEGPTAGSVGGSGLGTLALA

B1: anti-FAM19A1-2G7 (antibody, V domains shown)
VH: QVQLVESGGGLVKPGRSLSLSCTTSGFPFGDHAINWVRQAPGKGLEWVGFIRSNTYGGTTQYAASVEGRFTISRDDSKSIAYLQMNSLRAEDTAVYYCTKDITGGGFWSDYGDYFDAFDFWGQGTMVTVSS
VL: SYELTQPLSVSVSPGQTASISCSGDKLGYKYASWYQQKPGQSPVVVIYQDKKRPSGIPERFSGSNSGNTATLTISGTQPMDEADYYCQAWDSGTASHVFGTGTKVTVL
notes: also called anti-FAM19A1 IgG1 antibody clone 2G7
Kd [1]: 1.89 nM

B2: Anti-FAM19A1 2G7 mono scFv-phage clone (scFv, V domains shown)
VH: B1 VH
VL: B1 VL
binding result [2]: no binding
binding result [3]: no binding
binding result [4]: no binding

B3: anti-FAM19A1 IgG1 antibody clone 1C1 (antibody, V domains shown)
VH: QVQLVESGGGVAQPGRSLRLSCAASGFAFSDYGIHWVRQAPGKGLEWVALISYDGSKRSYADSVKGRFAISRDNSKNTLYLQMNSLRAEDTAVYYCARPGDYALAFDLWGQGTMVTVSS
VL: QTVVTQEPSFSVSPGETVTLTCGLSSGSVSTSHFPSWYRQTPGQAPRPLIDSRNARSIGVPDRFSGSIVGTKATLTISGAQAEDECNYYCALYMGRGNWVFGGGTKLTVL
notes: also called A1-1C1; FAM19A1-1C1
Kd [5]: 1.13 nM
binding result [6]: binds
binding result [7]: binds
binding result [8]: binds
binding result [9]: binds
binding result [10]: binds
binding result [11]: binds
binding result [12]: binds
binding result [13]: no binding

B4: Anti-FAM19A1 1C1 mono scFv-phage clone (scFv, V domains shown)
VH: B3 VH
VL: B3 VL
binding result [2]: no binding
binding result [3]: no binding
binding result [4]: no binding

B5: anti-FAM19A1-1A11 (antibody, V domains shown)
VH: QVQLVESGAEVRKPGASVKVSCKASGYSFTGYDINWVRQAPGQGLEWMGWMNPSSGNTGYAQKFQGRVTMTRDSSISTAYMELSSLRSEDTAVYYCARALNSVYYYHALDVWGQGTTITVSS
VL: SYELTQPPSASVSPGQTASITCSGDRLHNKYTSWYQQKPGQSPLLVIYQDAKRPSGIPERFSGSSSRGTATLTISGTQATDEADYYCQTWDRSTGVFGTGTKVTVL
notes: also called anti-FAM19A1 IgG1 antibody clone 1A11; A1-1A11-Ybio
binding result [6]: binds
binding result [10]: binds

B6: Anti-FAM19A1 1A11 mono scFv-phage clone (scFv, V domains shown)
VH: B5 VH
VL: B5 VL
binding result [2]: no binding
binding result [3]: no binding
binding result [4]: no binding

B7: anti-FAM19A1-3A8 (antibody, V domains shown)
VH: QVQLQQSGPGLVKPSETLSLICSVSGDAITSGSYYWGWIRQSPGRGLEWIGEISHSGSTDYNPSLKSRVTISVDKSRNQFSLRLNSVTAVDTAVYYCAGDTALVGAYSIWGQGTMVTVSS
VL: SYELTQAPSLSVSPGQTANIICSGDNLRTKYVSWYQQKPGQSPLLVIYQDTRRPSGIPARFSGSNSGNTATLTISGTQTRDESTYYCMTWDVDTTSMIFGGGTKLTVL
notes: also called anti-FAM19A1 IgG1 antibody clone 3A8
Kd [14]: 56 nM

B8: Anti-FAM19A1 3A8 mono scFv-phage clone (scFv, V domains shown)
VH: B7 VH
VL: B7 VL
binding result [2]: no binding
binding result [3]: no binding
binding result [4]: no binding
